# Experimental data: patent US7244706
# Key:
# [1] = biological target: human lactoferrin (LF), intact, purified from human milk/colostrum (UniProt P02788)
# Chain of human lactoferrin (LF), intact, purified from human milk/colostrum (P02788 20-710): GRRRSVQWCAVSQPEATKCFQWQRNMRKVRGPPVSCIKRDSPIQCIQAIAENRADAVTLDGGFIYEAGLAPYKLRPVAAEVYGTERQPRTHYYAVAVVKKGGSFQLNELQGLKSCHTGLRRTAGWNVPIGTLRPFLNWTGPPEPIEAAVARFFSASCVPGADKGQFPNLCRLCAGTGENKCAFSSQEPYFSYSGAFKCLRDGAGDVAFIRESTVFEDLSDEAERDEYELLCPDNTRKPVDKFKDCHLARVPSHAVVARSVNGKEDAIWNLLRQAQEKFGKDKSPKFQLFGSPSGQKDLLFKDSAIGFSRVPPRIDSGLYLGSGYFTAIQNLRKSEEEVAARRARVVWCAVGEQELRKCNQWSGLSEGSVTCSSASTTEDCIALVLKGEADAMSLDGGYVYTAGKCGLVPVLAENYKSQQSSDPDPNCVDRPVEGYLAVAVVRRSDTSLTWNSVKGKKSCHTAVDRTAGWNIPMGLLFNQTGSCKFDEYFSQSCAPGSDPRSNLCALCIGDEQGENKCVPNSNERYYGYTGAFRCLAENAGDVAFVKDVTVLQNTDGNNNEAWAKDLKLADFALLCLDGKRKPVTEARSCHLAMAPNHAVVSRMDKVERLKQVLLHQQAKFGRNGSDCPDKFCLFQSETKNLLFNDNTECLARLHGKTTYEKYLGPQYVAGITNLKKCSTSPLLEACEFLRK
# Chain of bovine spleen cathepsin D (Sigma) (chain, as listed by the source): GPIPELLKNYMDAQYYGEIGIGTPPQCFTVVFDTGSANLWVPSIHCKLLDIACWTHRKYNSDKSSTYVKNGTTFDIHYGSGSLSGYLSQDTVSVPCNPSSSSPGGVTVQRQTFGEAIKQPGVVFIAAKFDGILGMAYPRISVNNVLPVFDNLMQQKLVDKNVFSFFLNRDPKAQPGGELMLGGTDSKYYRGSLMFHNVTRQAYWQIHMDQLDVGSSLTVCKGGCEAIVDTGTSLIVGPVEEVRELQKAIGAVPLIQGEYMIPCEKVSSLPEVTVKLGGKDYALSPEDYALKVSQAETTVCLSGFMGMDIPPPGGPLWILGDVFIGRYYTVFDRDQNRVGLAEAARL
substance,measurement,setting,value
bovine spleen cathepsin D (Sigma),"proteolytic release of the N-terminal 6 kDa polypeptide, seen by immunoblot",[1],"Exposure of either iron-saturated or iron-free LF to even small amounts of cathepsin D ( 1/200th, w:w) for a period as brief as five minutes yielded the N-terminal 6 kDa polypeptide"
same,"loss of proteolytic release of the 6 kDa fragment from LF, seen by immunoblot",pepstatin A,"incubations of LF performed in the absence of cathepsin D or in the presence of pepstatin A, an inhibitor of cathepsin D, failed to identify a 6 kDa fragment"
